# Residue numbers refer to the chain shown, from its start. Names may count otherwise.
# T1: orthogonal hCD122 receptor (hoRb), hCD122 with H133D and Y134F (human, UniProt P14784 27-550)
# T1 sequence: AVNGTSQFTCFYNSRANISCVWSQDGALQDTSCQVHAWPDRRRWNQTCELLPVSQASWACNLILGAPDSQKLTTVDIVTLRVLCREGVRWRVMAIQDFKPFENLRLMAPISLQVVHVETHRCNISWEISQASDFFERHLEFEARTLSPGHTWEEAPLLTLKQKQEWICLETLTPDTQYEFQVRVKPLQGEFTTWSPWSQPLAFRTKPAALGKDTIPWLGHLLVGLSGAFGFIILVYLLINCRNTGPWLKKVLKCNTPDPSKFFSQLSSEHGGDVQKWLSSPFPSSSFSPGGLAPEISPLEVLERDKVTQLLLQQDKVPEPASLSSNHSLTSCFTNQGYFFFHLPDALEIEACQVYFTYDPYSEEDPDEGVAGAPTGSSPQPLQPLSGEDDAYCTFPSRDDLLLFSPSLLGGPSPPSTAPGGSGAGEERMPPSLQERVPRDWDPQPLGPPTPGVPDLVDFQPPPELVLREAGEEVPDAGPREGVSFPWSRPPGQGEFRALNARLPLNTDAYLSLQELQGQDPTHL
# B1: L14W, SQVLKA (ligand)
# chain: APTSSSTKKTQLQWSQLLVLLKAILNGINNYKNPKLTRMLTFKFYMPKKATELKHLQCLEEELKPLEEVLNLAQSKNFHLRPRDLISNINVIVLELKGSETTFMCEYADETATIVEFLNRWITFCQSIISTLT
# B2: TQVLKA (ligand)
# chain: B1 chain with W14L, S15T
# B3: Q126R, SQVLKA (ligand)
# chain: B1 chain with W14L, Q126R
# B4: Q126E, SQVLKA (ligand)
# chain: B1 chain with W14L, Q126E
# B5: SNVLKA (ligand)
# chain: B1 chain with W14L, Q16N
# B6: KQVLKA (ligand)
# chain: B1 chain with W14L, S15K
# B7: Q126S, SQVLKA (ligand)
# chain: B1 chain with W14L, Q126S
# B8: Q126G, SQVLKA (ligand)
# chain: B1 chain with W14L, Q126G
# B9: Q126T, SQVLKA (ligand)
# chain: B1 chain with W14L, Q126T
# B10: Q126I, SQVLKA (ligand)
# chain: B1 chain with W14L, Q126I
# B11: L18G, SQVLKA (ligand)
# chain: B1 chain with W14L, L18G
# B12: L18F, SQVLKA (ligand)
# chain: B1 chain with W14L, L18F
# B13: L18M, SQVLKA (ligand)
# chain: B1 chain with W14L, L18M
# B14: ΔH16, S_VLKA (ligand)
# chain: APTSSSTKKTQLQLSLLVLLKAILNGINNYKNPKLTRMLTFKFYMPKKATELKHLQCLEEELKPLEEVLNLAQSKNFHLRPRDLISNINVIVLELKGSETTFMCEYADETATIVEFLNRWITFCQSIISTLT
# Molecular target: T1, orthogonal hCD122 receptor (hoRb), …
# Test: cell-based or functional assay
# For Relative Proliferation Fold Change 3F8 1:10 in this document: reference of the scale not given here.
# For Relative Proliferation Fold Change 3F8 1:2 in this document: reference of the scale not given here.
# For Relative Proliferation Fold Change 3F8 1:50 in this document: reference of the scale not given here.
# For Relative Proliferation Fold Change NKL 1:10 in this document: reference of the scale not given here.
# For Relative Proliferation Fold Change NKL 1:2 in this document: reference of the scale not given here.
# For Relative Proliferation Fold Change NKL 1:50 in this document: reference of the scale not given here.
NKL Ortho Proliferation Signal 1:2,NKL Ortho Proliferation Signal 1:10,NKL Ortho Proliferation Signal 1:50,Relative Proliferation Fold Change NKL 1:2,Relative Proliferation Fold Change NKL 1:10,Relative Proliferation Fold Change NKL 1:50,Binder
50300,45100,20900,4.04 fold,2.83 fold,1.39 fold,B1
50400,57900,27800,3.46 fold,3.31 fold,1.75 fold,B2
13900,9670,6650,1.18 fold,0.75 fold,0.57 fold,B3
10600,8600,6800,1.01 fold,0.68 fold,0.55 fold,B4
46800,39700,18300,2.94 fold,2.19 fold,1.09 fold,B5
71200,67600,38900,5.12 fold,4.36 fold,2.63 fold,B6
9460,7880,6310,0.71 fold,0.57 fold,0.5 fold,B7
5740,7220,6050,0.45 fold,0.49 fold,0.45 fold,B8
5980,6750,5180,0.44 fold,0.47 fold,0.41 fold,B9
40000,35600,16700,3.78 fold,2.5 fold,1.25 fold,B10
15400,13400,8640,1.05 fold,0.83 fold,0.57 fold,B11
48600,39400,19400,3.85 fold,2.52 fold,1.3 fold,B12
42700,43900,22100,3.7 fold,2.72 fold,1.55 fold,B13
20900,14200,9760,1.32 fold,0.84 fold,0.62 fold,B14

# Molecular target: T1, orthogonal hCD122 receptor (hoRb), …
# Test: cell-based or functional assay
# Remark: another data set of the same source
3F8 Ortho Proliferation Signal 1:2,3F8 Ortho Proliferation Signal 1:10,3F8 Ortho Proliferation Signal 1:50,Relative Proliferation Fold Change 3F8 1:2,Relative Proliferation Fold Change 3F8 1:10,Relative Proliferation Fold Change 3F8 1:50,Binder
35300 cts/min,36000 cts/min,13600 cts/min,66.2 fold,31.8 fold,16.5 fold,B1
29100 cts/min,35900 cts/min,17000 cts/min,2.6 fold,16 fold,8.69 fold,B2
22400 cts/min,18100 cts/min,3710 cts/min,0.49 fold,1.44 fold,1.37 fold,B3
21000 cts/min,14600 cts/min,2660 cts/min,129 fold,33.6 fold,6.4 fold,B4
31400 cts/min,32700 cts/min,19000 cts/min,9.2 fold,11.8 fold,4.79 fold,B5
35200 cts/min,36800 cts/min,24000 cts/min,4.86 fold,3.88 fold,23 fold,B6
9540 cts/min,2870 cts/min,826 cts/min,19.3 fold,3.69 fold,1.6 fold,B7
1540 cts/min,1100 cts/min,838 cts/min,7.05 fold,2.14 fold,1.14 fold,B8
3380 cts/min,1880 cts/min,1320 cts/min,0.28 fold,0.54 fold,1.92 fold,B9
27400 cts/min,27000 cts/min,9510 cts/min,30 fold,11.3 fold,8.69 fold,B10
37700 cts/min,25900 cts/min,9750 cts/min,52.9 fold,17 fold,3.79 fold,B11
49800 cts/min,40800 cts/min,30000 cts/min,54.8 fold,16.8 fold,11.8 fold,B12
42000 cts/min,48500 cts/min,37200 cts/min,55 fold,21.9 fold,16.6 fold,B13
2360 cts/min,4420 cts/min,1670 cts/min,3.49 fold,1.68 fold,1.33 fold,B14

# — patent publication US20210196796A1 (SYNTHEKINE, published 2021)
